# Assay: soluble on expression in E. coli; label from the status in PepcDB or PDB records
row,Sequence,soluble on expression in E. coli
1,SMTGPIVYVQNADGIFFKLAEGKGTNDAVIHLANQDQGVRVLGAEEFPVQGEVVKIASLMGFIKLKLNRYAIIANTVEETGRFNGHVFYRVLQHSIVSTKFNSRIDSEEAEYIKLLELHLKNSTFYFSYTYDLTNSLQRNEKVGPAASWKTADERFFWNHYLTEDLRNFAHQDPRIDSFIQPVIYGYAKTVDAVLNATPIVLGLITRRSIFRAGTRYFRRGVDKDGNVGNFNETEQILLAENPESEKIHVFSFLQTRGSVPIYWAEINNLKYKPNLVLGENSLDATKKHFDQQKELYGDNYLVNLVNQKGHELPVKEGYESVVHALNDPKIHYVYFDFHHECRKMQWHRVKLLIDHLEKLGLSNEDFFHKVIDSNGNTVEIVNEQHSVVRTNCMDCLDRTNVVQSVLAQWVLQKEFESADVVATGSTWEDNAPLLTSYQNLWADNADAVSVAYSGTGALKTDFTRTGKRTRLGAFNDFLNSASRYYQNNWTDGPRQDSYDLFLGG,soluble
2,MKPVQLTVDNIAKAIFTVNRHAKTALNPSFLYLLKKKAIEKLLEEGKAKKVGLHFSRNPKYSQQQSDVLVAVGDYYFHIPPTKQDFAALPHLGSLNDSYRNPPARMPLSEAKAILIAYTGLREKPEQKPKRLTRPVFKRLGDRY,not soluble
3,MESLTLQPIARVDGAINLPGSKSVSNRALLLAALACGKTALTNLLDSDDVRHMLNALSALGINYTLSADRTRCDITGNGGALRAPGALELFLGNAGTAMRPLAAALCLGQNEIVLTGEPRMKERPIGHLVDSLRQGGANIDYLEQENYPPLRLRGGFTGGDIEVDGSVSSQFLTALLMTAPLAPKDTIIRVKGELVSKPYIDITLNLMKTFGVEIANHHYQQFVVKGGQQYHSPGRYLVEGDASSASYFLAAGAIKGGTVKVTGIGRKSMQGDIRFADVLEKMGATITWGDDFIACTRGELHAIDMDMNHIPDAAMTIATTALFAKGTTTLRNIYNWRVKETDRLFAMATELRKVGAEVEEGHDYIRITPPAKLQHADIGTYNDHRMAMCFSLVALSDTPVTILDPKCTAKTFPDYFEQLARMSTPA,not soluble
4,MSLMLEPNPTQIKEERIYAEMGLTDEEFAMVEKILGRLPNYTETGLFSVMWSEHCSYKNSKPVLRKFPTTGERVLQGPGEGAGIVDIGDNQAVVFKMESHNHPSAIEPYQGAATGVGGIIRDVFSMGARPVALLNSLRFGELQSPRVKYLFEEVVAGIAGYGNCIGIPTVGGEVQFDPCYEGNPLVNAMCVGLINHEDIKKGQAHGAGNTVMYVGASTGRDGIHGATFASEELSESSEAKRPAVQVGDPFMEKLLIEACLELIQSDALVGIQDMGAAGLTSSSAEMASKAGMGIEMYLDDVPQRETGMTPYEMMLSESQERMLIVVKKGREQEIVDLFEKYGLAAVTMGKVTEDKMLRLFHKGEMVAEVPADALAEEAPIYHKPSKEAAYFAEFQQMKMETPKVENYKETLFALLQQPTIASKEWVYDQYDYQVRTSTVVTPGSDAAVVRVRGTEKGLAMTTDCNSRYIYLDPEVGGKIAVAEAARNIVCSGGEPLAITDCLNFGNPEKPEIFWQIEKSVDGMSEACRTLQTPVIGGNVSMYNERSGEAVYPTPTVGMVGLVHDLKHVTTQEFKQAGDLVYVIGETKAEFGGSELQKMLHGKIFGQSPSIDLDVELKRQKQVLAAIQAGLVQSAHDVAEGGLAVAISESAIGANGLGATVKLDGEATAALFAESQSRFVITVKRENKEAFEKAVEAIQVGEVTNTNEVTIHNEENEVLLTANVDEMRKAWKGAIPCLLK,not soluble
5,MAHHHHHHMGQSKTKLQVVMCGLDNSGKTTIINQVKPAQSSSKHITATVGYNVETFEKGRVAFTVFDMGGAKKFRGLWETYYDNIDAVIFVVDSSDHLRLCVVKSEIQAMLKHEDIRRELPGGGRVPFLFFANKMDAAGAKTAAELVEILDLTTLMGDHPFVIFASNALKGTGVHEGFSWLQETASRQSGKAGTKRG,soluble
6,MGEETINSTQNKTRTKTTRPKAVYLWTVSDVLKWYRRHCGEYTQYEQLFAQHDITGRALLRITDSSLQRMGVTDNRDREAIWREIVKQRLKTDIMEIRDMERLNIY,soluble
7,MTDKENFYSGFFLGRLPGSFDSRFLIKVACFQPGKEERNVFELTTDTKREEDYGEMVHFWVDKGPLQNKSFVRFEENYETFFIHENKMFDRIVHTDKDFYVGVNDLPDSDIYIHPDLGKMIDTRSIVTPGKKYNFITFEVKQNENNSFDIEIVGGEVQGKEKNSEEPSAKEKIIQKMEQVHEVMKVEYEYNKNEETANWDVIGHLKLIKFYDKDLTSGLRPVLRLMDNRHVALFKKQRETMPIKMIKVIEVDGIWKDDVNFVPQEGTLLPTDHDEKTVVLLGNDYRHKFERLFKREDVFRLESNNTLTHLKFWQYGLEKI,not soluble
8,MNKFIAAEAAECIGCHACEIACAVAHNQENWPLSHSDFRPRIHVVGKGQAANPVACHHCNNAPCVTACPVNALTFQSDSVQLDEQKCIGCKRCAIACPFGVVEMVDTIAQKCDLCNQRSSGTQACIEVCPTQALRLMDDKGLQQIKVARQRKTAAGKASSDAQPSRSAALLPVNSRKGADKISASERKTHFGEIYCGLDPQQATYESDRCVYCAEKANCNWHCPLHNAIPDYIRLVQEGKIIEAAELCHQTSSLPEICGRVCPQDRLCEGACTLKDHSGAVSIGNLERYITDTALAMGWRPDVSKVVPRSEKVAVIGAGPAGLGCADILARAGVQVDVFDRHPEIGGMLTFGIPPFKLDKTVLSQRREIFTAMGIDFHLNCEIGRDITFSDLTSEYDAVFIGVGTYGMMRADLPHEDAPGVIQALPFLTAHTRQLMGLPESEEYPLTDVEGKRVVVLGGGDTTMDCLRTSIRLNAASVTCAYRRDEVSMPGSRKEVVNAREEGVEFQFNVQPQYIACDEDGRLTAVGLIRTAMGEPGPDGRRRPRPVAGSEFELPADVLIMAFGFQAHAMPWLQGSGIKLDKWGLIQTGDVGYLPTQTHLKKVFAGGDAVHGADLVVTAMAAGRQAARDMLTLFDTKAS,not soluble
9,STAKNSPKEFTASESEVCIKTFKEQMRLELELPKLPGNRPTSPKISPRSSPRNSPCFFRKLLVNKSIRQRRRFTVAHTCFDVENGPSPGRSPLDPQAGSSSGLVLHAAFPGHSQRRESFLYRSDSDYDLSPKAMSRNSSLPSEQHGDDLIVTPFAQVLASLRSVRNNFTLLTNLHGAPNKRSPAASQAPVSRVSLQVCDHRRLTKCRESKRC,not soluble
10,MGSDKIHHHHHHMTRRGMEFYEKAQELVKGFDIFQNQYANPEEEKDEFSIASQHYDFLPPTITAFSERYPDYKNFRIFESTTVQILDEVAQGHSEIGIIYLNNQNKKGIMQRVEKLGLEIIELISFHTHIYLREGHPLAQKEELVMEDLADLPTVRFTQEKDEYLYYSENFVDTSASSQMFNVTDRATLNGILERTDAYATGSGFLDSDSVNGITVIRLKDNLDNRMVYVKREEVELSQAGTLFVEVMQEYFNQKRKS,not soluble
11,ATDTGGYAATAGGNVTGAVSKTATSMQDIVNIIDAARLDANGKKVKGGAYPLVITYTGNEDSLINAAAANICGQWSKDPRGVEIKEFTKGITIIGANGSSANFGIWIKKSSDVVVQNMRIGYLPGGAKDGDMIRVDDSPNVWVDHNELFAANHECDGTPDNDTTFESAVDIKGASNTVTVSYNYIHGVKKVGLDGSSSSDTGRNITYHHNYYNDVNAKLPLQRGGLVHAYNNLYTNITGSGLNVRQNGQALIENNWFEKAINPVTSRYDGKNFGTWVLKGNNITKPADFSTYSITWTADTKPYVNADSWTSTGTFPTVAYNYSPVSAQCVKDKLPGYAGVGKNLATLTSTACK,soluble
